Measurements from publication PMC1184076, “Modulation of p53 activity by IκBα: Evidence suggesting a common phylogeny between NF-κB and p53 transcription factors” (BMC Immunology, 2005).

Target: T1, GST-p53, purified, bacterially produced (UniProt P04637 1-393)
T1 construct: p53 tumor suppressor protein; also called p53-pGEX; purified p53; source: bacteria, from a pGEX construct, purified
Assay: pull-down; purified GST-p53 (or GST-c-Jun) incubated with purified His-IκBα in IP buffer (25 mM Hepes pH 7.5, 75 mM KCl, 2.5 mM MgCl2, 0.1 mM EDTA, 0.15% NP-40, 1 mM DTT); glutathione Sepharose beads; autoradiography of 32P-IκBα or Western blot for IκBα
Details: both partners purified

T1 sequence (P04637 whole entry): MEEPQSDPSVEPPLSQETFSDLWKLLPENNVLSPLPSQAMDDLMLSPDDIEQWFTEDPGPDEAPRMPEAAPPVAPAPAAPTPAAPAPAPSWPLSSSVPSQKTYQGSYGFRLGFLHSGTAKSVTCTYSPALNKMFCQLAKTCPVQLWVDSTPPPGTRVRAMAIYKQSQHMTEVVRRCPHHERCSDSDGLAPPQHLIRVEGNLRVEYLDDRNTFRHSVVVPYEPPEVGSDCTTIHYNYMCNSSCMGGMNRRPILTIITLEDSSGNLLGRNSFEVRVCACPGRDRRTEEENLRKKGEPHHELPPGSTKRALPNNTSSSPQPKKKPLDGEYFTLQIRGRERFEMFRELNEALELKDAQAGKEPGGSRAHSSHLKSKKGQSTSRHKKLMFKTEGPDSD

| binding result | Binder |
| --- | --- |
| binds | [32P]-labeled 6xHis-tagged IκBα (His-IκBα), phosphorylated in vitro by p90rsk (natural protein, UniProt P25963 1-317, looked up, 32P-phosphate put on in vitro by p90rsk; site not stated, IκBα, wild type; also called [^32P]-labeled IκBα; purified bacterially-produced wild-type IκBα; source: bacterially produced, purified; labeled in vitro with [γ-32P]ATP and Xenopus laevis p90rsk) MFQAAERPQEWAMEGPRDGLKKERLLDDRHDSGLDSMKDEEYEQMVKELQEIRLEPQEVPRGSEPWKQQLTEDGDSFLHLAIIHEEKALTMEVIRQVKGDLAFLNFQNNLQQTPLHLAVITNQPEIAEALLGAGCDPELRDFRGNTPLHLACEQGCLASVGVLTQSCTTPHLHSILKATNYNGHTCLHLASIHGYLGIVELLVSLGADVNAQEPCNGRTALHLAVDLQNPDLVSLLLKCGADVNRVTYQGYSPYQLTWGRPSTRIQQQLGQLTLENLQMLPESEDEESYDTESEFTEFTEDELPYDDCVFGGQRLTL |
| binds | 6xHis-tagged IκBα (His-IκBα), purified, bacterially produced (natural protein, UniProt P25963 1-317, looked up, IκBα, wild type; also called purified IκBα protein; hexahistidine-tagged IκBα; source: bacterially produced, purified) MFQAAERPQEWAMEGPRDGLKKERLLDDRHDSGLDSMKDEEYEQMVKELQEIRLEPQEVPRGSEPWKQQLTEDGDSFLHLAIIHEEKALTMEVIRQVKGDLAFLNFQNNLQQTPLHLAVITNQPEIAEALLGAGCDPELRDFRGNTPLHLACEQGCLASVGVLTQSCTTPHLHSILKATNYNGHTCLHLASIHGYLGIVELLVSLGADVNAQEPCNGRTALHLAVDLQNPDLVSLLLKCGADVNRVTYQGYSPYQLTWGRPSTRIQQQLGQLTLENLQMLPESEDEESYDTESEFTEFTEDELPYDDCVFGGQRLTL |
